For 16 molecules, highest relative fluorescence (rf) and relative fluorescence (rf) results are on record in PMC7688916 (2020).

Holding throughout (assay): split reporter (BiFC, NanoBiT); split-GFP (mGFP2 split between residues 157 and 158) in Hfx. volcanii transformants in vivo; eight combinations of fusions a pair, highest relative fluorescence (rf) given; cells in basal salts (3 M NaCl, 150 mM MgSO4, 50 mM KCl) at OD600 1; rf > 5 clear interaction, rf < 1 no interaction
The target in assay [1] is GvpL fused to NGFP or CGFP (split-GFP) (Halobacterium salinarum PHH1).
The target of assay [2] is GvpF fused to NGFP or CGFP (split-GFP) (Halobacterium salinarum PHH1).
For assay [3], the target named is GvpI fused to NGFP or CGFP (split-GFP) (Halobacterium salinarum PHH1).
The target of assay [4] is GvpG fused to NGFP or CGFP (split-GFP) (Halobacterium salinarum PHH1).
The target in assay [5] is GvpF fused to NGFP or CGFP (split-GFP) (Halobacterium salinarum PHH1). This is another data set of the same source.
For assay [6], the target named is GvpI fused to NGFP or CGFP (split-GFP) (Halobacterium salinarum PHH1). This is another data set of the same source.
Assay [7] has as its target GvpL fused to NGFP or CGFP (split-GFP) (Halobacterium salinarum PHH1). The source holds these as a separate data set.
Assay [8] addresses GvpJ fused to NGFP or CGFP (split-GFP) (Halobacterium salinarum PHH1).
In assay [9] the target is GvpG fused to NGFP or CGFP (split-GFP) (Halobacterium salinarum PHH1). This is another data set of the same source.
Assay [10] concerns the target GvpK fused to NGFP or CGFP (split-GFP) (Halobacterium salinarum PHH1).
Assay [11] addresses GvpH fused to NGFP or CGFP (split-GFP) (Halobacterium salinarum PHH1).
Assay [12] deals with GvpM fused to NGFP or CGFP (split-GFP) (Halobacterium salinarum PHH1).

Where two headings read alike, the source gives them in different places.

Sequence of GvpF fused to NGFP or CGFP (split-GFP) (Halobacterium salinarum PHH1) (P24370 whole entry, the tested form may be a part): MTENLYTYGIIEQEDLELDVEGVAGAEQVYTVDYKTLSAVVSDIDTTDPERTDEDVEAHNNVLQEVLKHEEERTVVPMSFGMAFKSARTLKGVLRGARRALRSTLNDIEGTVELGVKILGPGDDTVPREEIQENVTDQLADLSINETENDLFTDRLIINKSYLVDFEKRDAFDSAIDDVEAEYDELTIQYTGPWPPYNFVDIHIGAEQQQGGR
Sequence of GvpL fused to NGFP or CGFP (split-GFP) (Halobacterium salinarum PHH1) (Q9HI27 whole entry, the tested form may be a part): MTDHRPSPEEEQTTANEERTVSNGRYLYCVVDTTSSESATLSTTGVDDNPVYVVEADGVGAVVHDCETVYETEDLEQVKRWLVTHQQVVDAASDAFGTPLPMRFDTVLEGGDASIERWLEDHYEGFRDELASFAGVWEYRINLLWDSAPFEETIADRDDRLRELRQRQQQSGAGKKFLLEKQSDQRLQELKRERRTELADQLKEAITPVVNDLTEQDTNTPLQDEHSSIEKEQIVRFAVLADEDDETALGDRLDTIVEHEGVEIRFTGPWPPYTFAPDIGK
Sequence of GvpG fused to NGFP or CGFP (split-GFP) (Halobacterium salinarum PHH1) (P24371 whole entry, the tested form may be a part): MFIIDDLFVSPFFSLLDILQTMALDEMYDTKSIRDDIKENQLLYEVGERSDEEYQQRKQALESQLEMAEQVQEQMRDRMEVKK

Take “GvpK fused to NGFP or CGFP (split-GFP) (natural protein)”: the highest relative fluorescence (rf) in assay [1] was 7.4 rf. Take “GvpF fused to NGFP or CGFP (split-GFP) (natural protein)”: the highest relative fluorescence (rf) in [1] came out at 16.6 rf. Also, the relative fluorescence (rf) in assay [2] was 1.5 rf. In the case of “GvpH fused to NGFP or CGFP (split-GFP) (natural protein)”, the highest relative fluorescence (rf) in [3] was 20 rf; in assay [1], 11.4 rf; in [2] it was 6.3 rf. On to “GvpI fused to NGFP or CGFP (split-GFP) (natural protein)”, for which the highest relative fluorescence (rf) turned out to be 13.7 rf in assay [1] and 6.3 rf in assay [2]. In the case of “GvpG fused to NGFP or CGFP (split-GFP) (natural protein)”, the highest relative fluorescence (rf) in assay [1] amounted to 77.5 rf; in assay [2], 5 rf. The relative fluorescence (rf) in [4] turned out to be 3.5 rf.

B1: GvpA fragment A20-47 fused to NGFP or CGFP (split-GFP) (domain or fragment)
chain: GVVVDVWARVSLVGIEILTVEARVVAAS
Regarding B1, the highest relative fluorescence (rf) in [5] is less than 1 rf.

B2: GvpA fragment A1-22 fused to NGFP or CGFP (split-GFP) (domain or fragment)
chain: MAQPDSSGLAEVLDRVLDKGVV
Consider B2, for which the highest relative fluorescence (rf) in assay [5] amounted to 41 rf.

B3: GvpA fused to NGFP or CGFP (split-GFP) (natural protein)
chain: MAQPDSSGLAEVLDRVLDKGVVVDVWARVSLVGIEILTVEARVVAASVDTFLHYAEEIAKIEQAELTAGAEAAPEA
As to B3, the highest relative fluorescence (rf) in assay [6] is less than 1 rf; in assay [7], less than 1 rf; in assay [8] it was less than 1 rf; in assay [5], 20 rf; in assay [9] it was less than 1 rf; in assay [10] it was less than 1 rf. Further, the highest relative fluorescence (rf) in assay [11] and in assay [12] was less than 1 rf in each case. The relative fluorescence (rf) in assay [5] lay within 15 to 18 rf.

B4: GvpA R28A (split-GFP fusion) (natural protein)
chain: MAQPDSSGLAEVLDRVLDKGVVVDVWAAVSLVGIEILTVEARVVAASVDTFLHYAEEIAKIEQAELTAGAEAAPEA
With B4, the relative fluorescence (rf) in assay [5] was less than 6 rf.

B5: GvpA E40A (split-GFP fusion) (natural protein)
chain: MAQPDSSGLAEVLDRVLDKGVVVDVWARVSLVGIEILTVAARVVAASVDTFLHYAEEIAKIEQAELTAGAEAAPEA
For B5, the relative fluorescence (rf) in [5] was less than 6 rf.

B6: GvpA D24Y (split-GFP fusion) (natural protein)
chain: MAQPDSSGLAEVLDRVLDKGVVVYVWARVSLVGIEILTVEARVVAASVDTFLHYAEEIAKIEQAELTAGAEAAPEA
For B6, in assay [5], the relative fluorescence (rf) is less than 6 rf.

B7: GvpA G20A (split-GFP fusion) (natural protein)
chain: MAQPDSSGLAEVLDRVLDKAVVVDVWARVSLVGIEILTVEARVVAASVDTFLHYAEEIAKIEQAELTAGAEAAPEA
In the case of B7, in [5], the relative fluorescence (rf) is less than 6 rf.

B8: GvpA D24A (split-GFP fusion) (natural protein)
chain: MAQPDSSGLAEVLDRVLDKGVVVAVWARVSLVGIEILTVEARVVAASVDTFLHYAEEIAKIEQAELTAGAEAAPEA
Turning to B8, the relative fluorescence (rf) in assay [5] is less than 6 rf.

B9: GvpA G20D (split-GFP fusion) (natural protein)
chain: MAQPDSSGLAEVLDRVLDKDVVVDVWARVSLVGIEILTVEARVVAASVDTFLHYAEEIAKIEQAELTAGAEAAPEA
For the molecule B9, the relative fluorescence (rf) in assay [5] is less than 6 rf.

B10: GvpA R28D (split-GFP fusion) (natural protein)
chain: MAQPDSSGLAEVLDRVLDKGVVVDVWADVSLVGIEILTVEARVVAASVDTFLHYAEEIAKIEQAELTAGAEAAPEA
Turning to B10, in assay [5], the relative fluorescence (rf) was less than 6 rf.

B11: GvpA fragment A44-76 fused to NGFP or CGFP (split-GFP) (domain or fragment)
chain: VAASVDTFLHYAEEIAKIEQAELTAGAEAAPEA
For B11, the highest relative fluorescence (rf) in assay [5] was less than 1 rf.
